This note sets out measurements from patent US7183376.

This experiment has as its target human CD28 receptor on T cells (human, UniProt P10747 19-220). Kind of experiment: cell-based or functional assay.

B1: Round 2 CD28BP-15 (ligand)
chain: ITPKSVTKRVKETVMLSCDYNTSTEELTSLRIYWQKDSKMVLAILPGKVQVWPEYKNRTITDMNDNPRIVILALRPSDSGTYTCVIQKPVLKGAYKLEHLASVRLMIRADFPVPTINDLGNPSPNIRRLICSTSGGFPRPHLYWLENGEELNATNTTVSQDPGTELYMISSELDFNVTNNHSIVCLIKYGELSVSQIFPWSKPKQEPPIDQLPFWVIIPVSGALVLTAVVLYCLACRHVARWKRTRRNEETVGTERLSPIYLGSAQSSG
B1: the “T cell proliferation (3H-thymidine), transfected 293 HEK cells” value was around 3 fold.
